# Assay results published in patent publication US20200138870A1, “RECREATION OF PANCREATIC NICHE ALLOWS FOR NOVEL METHODS FOR HUMAN, MATURE BETA DERIVATION FROM PLURIPOTENT STEM CELLS” (Baylor College of Medicine, priority 2016, published 2020).
# Values joined by “and” are separate entries in the source; they are usually repeats but may differ in a detail not shown here. Equal values may be shown once.
# What was measured:
# Assay type in all cases: cell-based, human
# c-JUN = assay: p-c-JUN immunofluorescence in EPs; details: WNT5A short-term treatment (24h in FIG. 6G)
# Description: Cells were incubated with 5% donkey serum (Jackson ImmunoResearch Laboratories) in PBST (PBS+0.1% Triton-X) for 30 min to avoid nonspecific binding of the antibody and to permeabilize the cells. Primary antibodies, diluted in 5% donkey serum in PBST, were then added and incubated at 4° C. overnight with shaking. After primary antibody incubation, cells were washed 3 times with PBST and secondary antibodies conjugated with Alexa-Fluor Dyes (Jackson ImmunoResearch Laboratories) and diluted in 5% donkey serum in PBST were added to the cells for 30 min at RT. Then, cells were thrice washed with PBST and nuclei were stained with Dapi (Roche Diagnostics). For imaging, Leica DMI6000 or confocal Leica TCS SPE was used. Images were initially processed by LAS X software and then further analyzed and quantified using ImageJ software (NIH, W Rasband, http://rsb.info.nih.gov/ij) using cell counter plug-in. Typically, at least 5 randomly selected images were counted per condition.
# Smad = assay: Dual-pathway multicolor luciferase assay, Smad reporter; details: 500 ng/ml WNT5A, at 36 and 48h
# Excerpt: The dual-pathway luciferase reporter vector was generated using the GoldenBraid2.0 Assembly Platform (Sarrion-Perdigones et al., 2011; Sarrion-Perdigones et al., 2013). Briefly, transcriptional units comprising the promoter elements, the CDS of the corresponding luciferase and the bovine growth hormone terminator were first assembled, and then these were latter combined in successive rounds of assembly to build the multigenic vector used in this assay. For the multicolor luciferase assay, H1-derived EPs were first dissociated into 96-well plates using method previously described and incubated overnight to allow cell attachment. […] At the determined harvesting point, culture media was removed and wells were washed with PBS. […] 10 μL of LARII reagent was added with the built-in injectors and after 2 seconds, the total light and the BP filtered light emitted by the FLuc and RedF mixture were measured for 1 second. Finally, 15 μL of Stop & Glo® reagent were injected and after 4 seconds the emitted light by Renilla luciferase was measured. The activity corresponding to FLuc and RedF that were simultaneously measured after the LARII reagent was added were calculated according to the method proposed by Nakayima et al (Nakajima et al., 2005) that is adjusted to this particular assay and explained in FIG. 7D.
# 3D-EPs = assay: WNT5A treatment in 3D SC-β cell differentiation protocol (Pagliuca et al., 2014); details: 4 days of treatment, compared to INS upregulation at 12-day in original protocol
# Description: SC-β cells were generated using the protocol as previously described (Pagliuca et al., 2014). WNT5A were introduced into the differentiation from EP stage (EN in the original paper) together with T3, ALK5i in CMRL media for the first two days and then change into T3, ALK5i in CMRL media from the third day. Samples were collected at the 4th day and 12th day counting from EP stage and were fixed with 4% PFA and thrice washed with PBS for 10 min. For whole-mount staining, samples were first blocked with 5% donkey serum in PBST overnight and incubated with antibodies overnight as described above.
# hESC-derived EPs [1] = assay: Transwell migration and chemotaxis assay; details: 100, 500 ng/ml WNT5A in bottom well
# Description: Transwell assays were performed using FluoroBlock Insert, […] pore size (Corning). The bottom 24 wells and the insert of transwell were coated with Geltrex to retained cells. At the experiment day, 1.5×10^5 hESC-derived EPs were seeded in each well at the transwell insert in B27 media with 10 μM Y-27632 and the well bottoms were replenished with either B27 media as control, B27 media+100 or 500 ng/ml WNT5A, or conditional media from Wk9.1, 17.5h and 20.1. After one week, the cell attached to the bottom wells were stained with Dapi and were counted.
# hESC-derived EPs [2] = assay: RNA-sequencing of EPs treated with WNT5A
# Description: Total RNA was extracted as described elsewhere herein and RNA quality was assessed using 2100 Bioanalyzer (Agilent Genomics). Samples with RIN≥9 preceded to library preparation using TruSeq stranded mRNA Library Prep Kit LT (Illumina) according to the manufacturer's protocol. Library concentration was determined by qPCR (KAPA Library Quantification Kit) to pool equal amounts of libraries with different adaptor indexes. Sequencing was performed using NextSeq500 (Illumina).
# After preliminary analyses, showing a significant Pearson Correlation Coeficient for gene expression, two biological replicates were concatenated and analysed as single samples. This step yielded four samples, two for each treatment (5 days and 12h), as well as untreated samples. All reads were considered single-end in the bioinformatic analyses.
# For Venn diagram, TFactS analysis and Gene enrichment analysis (GSEA), sequencing reads were first aligned using TopHat and the gene differential expression were assembled and analyzed using Cufflinks. […] To predict which transcription factors are responsible to the gene changes in the sequencing result, TFactS analysis was performed by inputting up and down regulation gene lists. […] For GSEA (http://software.broadinstitute.org/gsea/index.jsp), all input files were generated through GenePattern and the analysis was performed based on the instruction from Broad institute GSEA user guide with the following parameter: phenotype labels as 5dUT versus 5dWNT5A, 1000 genes set of permutations, weighted enrichment statistic, gene sets between 15 to 500, with log 2 ratio of class as metric for ranking genes. […] Data GEO submission number: GSE 90785.
# [3] = test system: canonical β-catenin-dependent pathway; assay: TOPFLASH reporter assay; details: 100 or 500 ng/ml WNT5A, 3 days
# Description: For TOPFLASH reporter assay, 80,000 EPs were transfected with 0.5 μg of TOPFLASH (Addgene #12456) or FOPFLASH (Addgene #12457) from Dr. Randall Moon, together with 0.25 μg pRLTK using Lipofectamine 2000 (Invitrogen) for 48h. Cells were then treated with CHIR99021 (as positive control), DMSO (mock control) or WNT5A for 3 days before collecting the samples. Luciferase assay was performed using Dual luciferase assay system (Promega) which Luciferase and Renilla signal were measured by TD20/20 Luminometer (Turner designs).
# [4] = 5-day long treatment with WNT5A
molecule,measurement,setting,value
"WNT5A: secreted growth factor from the human pancreatic niche (R&D), used at 100 or 500 ng/ml (protein) IIGAQPLCSQLAGLSQGQKKLCHLYQDHMQYIGEGAKTGIKECQYQFRHRRWNCSTVDNTSVFGRVMQIGSRETAFTYAVSAAGVVNAMSRACREGELSTCGCSRAARPKDLPRDWLWGGCGDNIDYGYRFAKEFVDARERERIHAKGSYESARILMNLHNNEAGRRTVYNLADVACKCHGVSGSCSLKTCWLQLADFRKVGDALKEKYDSAAAMRLNSRGKLVQVNSRFNSPTTQDLVYIDPSPDYCVRNESTGSLGTQGRLCNKTSEGMDGCELMCCGRGYDQFKTVQTERCHCKFHWCCYVKCKKCTEIVDQFVCK",increase in p-c-JUN (number of c-JUN+ cells) compared to untreated control,c-JUN,9 fold and 6 fold
same,Smad activity (in words),Smad,decreases
same,number of INS+ cells in independent 3D protocol (in words),3D-EPs,increasing the number of INS+ cells
same,chemoattractant activity on EP migration (in words),hESC-derived EPs [1],does not act as a chemoattractant
same,downregulation of GCG,hESC-derived EPs [2]; 5-day WNT5A treatment,5 fold
same,downregulation of MAFB,hESC-derived EPs [2]; 5-day WNT5A treatment,3 fold
same,downregulation of NGN3,hESC-derived EPs [2]; 5-day WNT5A treatment,2 fold
same,up-regulation of GCK,hESC-derived EPs [2]; 5-day WNT5A treatment,9 fold
same,up-regulation of INS,hESC-derived EPs [2]; 5-day WNT5A treatment,81 fold
same,up-regulation of NEUROD1,hESC-derived EPs [2]; 5-day WNT5A treatment,56 fold
same,up-regulation of PCSK2,hESC-derived EPs [2]; 5-day WNT5A treatment,7 fold
same,up-regulation of SYT4,hESC-derived EPs [2]; 5-day WNT5A treatment,16 fold
same,"expression of BMP3, 4, and 6, GDF5 and 9 (in words)",hESC-derived EPs [2]; [4],downregulated
same,expression of DCN and BMP antagonist BMPER (in words),hESC-derived EPs [2]; [4],upregulated
same,"activity of β-catenin-dependent pathway, TOPFLASH (in words)",[3],did not significantly activate or antagonize
